“And” between values parts separate entries of the source, which are not always exact repeats. Equal entries are not always repeated. Bridges are numbered along the chain shown (N, C = ends). [ ]: non-standard residue; d: D form. The star is where a group is joined. Chg = N[C@H](C(=O)O)C1CCCCC1; Lauroyl = CCCCCCCCCCCC(=O)*; NMeA = CN[C@@H](C)C(=O)O
T1: β-catenin (UniProt P35222 134-665, limits assumed, biotinylated in the SPR and plate assays)
T1 construct: also called beta catenin; biotinylated β-catenin
T1 sequence (looked up): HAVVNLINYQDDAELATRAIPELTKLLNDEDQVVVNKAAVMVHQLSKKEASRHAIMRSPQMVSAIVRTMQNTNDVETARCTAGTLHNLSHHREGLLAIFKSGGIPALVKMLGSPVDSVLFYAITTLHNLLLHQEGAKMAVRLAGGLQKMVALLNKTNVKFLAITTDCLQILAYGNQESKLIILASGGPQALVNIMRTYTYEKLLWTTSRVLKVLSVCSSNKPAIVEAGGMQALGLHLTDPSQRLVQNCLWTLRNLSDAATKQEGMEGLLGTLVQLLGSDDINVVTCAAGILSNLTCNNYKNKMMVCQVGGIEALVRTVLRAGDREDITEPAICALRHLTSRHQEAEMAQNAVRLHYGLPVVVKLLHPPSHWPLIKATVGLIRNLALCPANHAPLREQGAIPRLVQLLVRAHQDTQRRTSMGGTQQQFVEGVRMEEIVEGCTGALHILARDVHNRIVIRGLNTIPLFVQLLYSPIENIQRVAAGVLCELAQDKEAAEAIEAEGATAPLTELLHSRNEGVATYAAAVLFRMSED


Columns and labels:
β-catenin [1] = molecular target: T1, β-catenin; assay: competitive FP
Method in brief: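 Competitive fluorescence polarization with inhibitor peptide serially diluted from 10 nM to 30 uM; polarization read at 470 nm excitation, 520 nm emission. Experiments performed three times.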

β-catenin [2] = molecular target: T1, β-catenin; assay: cell-based or functional assay

Kd (β-catenin [1])	Wnt Reporter EC50 (β-catenin [2])	Binder
> 10 µM and ≤ 30 µM	> 7.5 µM and ≤ 15 µM	H-MSRMWYLISFWG-OH [SEQ ID NO: 66]
≤ 0.4 µM	> 30 µM	H-MSRMWFLISFRG-OH [SEQ ID NO: 69]
≤ 0.4 µM	> 30 µM	EDPQKILDEHLQRVLK (not fully specified; H23C11C(O)NH-EDPQK*ILDE*HLQRVLK-NH2) [SEQ ID NO: 444]
≤ 0.4 µM	≤ 7.5 µM	WAQKILDEHGQRVW (HELM PEPTIDE1{[CCCCCCCCCCCC(=O)[*:2]].W.[meA].Q.K.I.L.D.E.H.[O=C([C@@H](N[*:1])C1CCCCC1)[*:2]].Q.R.V.W.[am]}$PEPTIDE1,PEPTIDE1,5:R3-9:R3$$$V2.0; SMILES CCCCCCCCCCCC(=O)N[C@@H](Cc1c[nH]c2ccccc12)C(=O)N(C)[C@@H](C)C(=O)N[C@@H](CCC(N)=O)C(=O)N[C@H]1CCCCNC(=O)CC[C@@H](C(=O)N[C@@H](Cc2c[nH]cn2)C(=O)N[C@H](C(=O)N[C@@H](CCC(N)=O)C(=O)N[C@@H](CCCNC(=N)N)C(=O)N[C@H](C(=O)N[C@@H](Cc2c[nH]c3ccccc23)C(N)=O)C(C)C)C2CCCCC2)NC(=O)[C@H](CC(=O)O)NC(=O)[C@H](CC(C)C)NC(=O)[C@H]([C@@H](C)CC)NC1=O) [SEQ ID NO: 447]
≤ 0.4 µM	> 30 µM	AQKILDEHGQRVWR (HELM PEPTIDE1{[ac].[meA].Q.K.I.L.D.E.H.[O=C([C@@H](N[*:1])C1CCCCC1)[*:2]].Q.R.V.W.R.[am]}$PEPTIDE1,PEPTIDE1,4:R3-8:R3$$$V2.0; SMILES CC[C@H](C)[C@@H]1NC(=O)[C@@H](NC(=O)[C@H](CCC(N)=O)NC(=O)[C@H](C)N(C)C(C)=O)CCCCNC(=O)CC[C@@H](C(=O)N[C@@H](Cc2c[nH]cn2)C(=O)N[C@H](C(=O)N[C@@H](CCC(N)=O)C(=O)N[C@@H](CCCNC(=N)N)C(=O)N[C@H](C(=O)N[C@@H](Cc2c[nH]c3ccccc23)C(=O)N[C@@H](CCCNC(=N)N)C(N)=O)C(C)C)C2CCCCC2)NC(=O)[C@H](CC(=O)O)NC(=O)[C@H](CC(C)C)NC1=O) [SEQ ID NO: 448]
≤ 0.4 µM	> 22.5 µM and ≤ 30 µM	AQKILDEHGQRVW (HELM PEPTIDE1{[ac].[meA].Q.K.I.L.D.E.H.[O=C([C@@H](N[*:1])C1CCCCC1)[*:2]].Q.R.V.W.[am]}$PEPTIDE1,PEPTIDE1,4:R3-8:R3$$$V2.0; SMILES CC[C@H](C)[C@@H]1NC(=O)[C@@H](NC(=O)[C@H](CCC(N)=O)NC(=O)[C@H](C)N(C)C(C)=O)CCCCNC(=O)CC[C@@H](C(=O)N[C@@H](Cc2c[nH]cn2)C(=O)N[C@H](C(=O)N[C@@H](CCC(N)=O)C(=O)N[C@@H](CCCNC(=N)N)C(=O)N[C@H](C(=O)N[C@@H](Cc2c[nH]c3ccccc23)C(N)=O)C(C)C)C2CCCCC2)NC(=O)[C@H](CC(=O)O)NC(=O)[C@H](CC(C)C)NC1=O) [SEQ ID NO: 445]
> 0.4 µM and ≤ 1 µM	> 15 µM and ≤ 22.5 µM	WAQKILNDHGQAV (HELM PEPTIDE1{[ac].W.[meA].Q.K.I.L.N.D.H.[O=C([C@@H](N[*:1])C1CCCCC1)[*:2]].Q.A.V.[am]}$PEPTIDE1,PEPTIDE1,5:R3-9:R3$$$V2.0; SMILES CC[C@H](C)[C@@H]1NC(=O)[C@@H](NC(=O)[C@H](CCC(N)=O)NC(=O)[C@H](C)N(C)C(=O)[C@H](Cc2c[nH]c3ccccc23)NC(C)=O)CCCCNC(=O)C[C@@H](C(=O)N[C@@H](Cc2c[nH]cn2)C(=O)N[C@H](C(=O)N[C@@H](CCC(N)=O)C(=O)N[C@@H](C)C(=O)N[C@H](C(N)=O)C(C)C)C2CCCCC2)NC(=O)[C@H](CC(N)=O)NC(=O)[C@H](CC(C)C)NC1=O) [SEQ ID NO: 452]
≤ 0.4 µM	≤ 7.5 µM	Lauroyl-W[NMeA]QKILNDH[Chg]QAVW-NH2 (lactam 4-8) [SEQ ID NO: 459]
